According to patent publication EP4786492A1:
“And” between values parts separate entries of the source, which are not always exact repeats. Equal entries are not always repeated. Values belong to the binder of their own block, whether it stands above or below them.

Tests used:
[1] = molecular target: human DLL3 protein expressed on CHO-K1 recombinant cells (human DLL3 extracellular segment fused to EpCAM transmembrane and intracellular regions) (human) (UniProt Q9NYJ7); assay: FACS, CHO-K1 hDLL3 cells, 20 nM antibody
Chain of human DLL3 protein expressed on CHO-K1 recombinant cells (human DLL3 extracellular segment fused to EpCAM transmembrane and intracellular regions) (human) (Q9NYJ7 other isoform, or with tags, fused parts or gaps limits assumed): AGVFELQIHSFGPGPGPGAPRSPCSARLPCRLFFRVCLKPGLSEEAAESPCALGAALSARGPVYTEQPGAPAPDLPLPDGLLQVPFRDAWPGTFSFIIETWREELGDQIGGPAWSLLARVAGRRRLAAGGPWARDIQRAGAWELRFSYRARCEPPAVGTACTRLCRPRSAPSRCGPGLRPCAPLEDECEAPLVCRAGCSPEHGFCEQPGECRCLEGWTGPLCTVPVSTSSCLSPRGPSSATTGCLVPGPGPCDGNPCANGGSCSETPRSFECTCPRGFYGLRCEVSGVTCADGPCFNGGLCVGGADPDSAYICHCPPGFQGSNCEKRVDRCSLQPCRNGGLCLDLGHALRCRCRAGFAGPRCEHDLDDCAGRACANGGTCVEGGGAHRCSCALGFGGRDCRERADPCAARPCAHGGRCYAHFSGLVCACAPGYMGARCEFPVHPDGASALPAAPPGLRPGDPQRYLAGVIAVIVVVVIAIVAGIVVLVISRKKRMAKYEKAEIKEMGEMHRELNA

[2] = molecular target: DLL3 endogenously expressed on NCI-H82 cells (UniProt Q9NYJ7); assay: FACS on NCI-H82 cells; antibody 20 nM
Chain of DLL3 endogenously expressed on NCI-H82 cells (Q9NYJ7 27-618): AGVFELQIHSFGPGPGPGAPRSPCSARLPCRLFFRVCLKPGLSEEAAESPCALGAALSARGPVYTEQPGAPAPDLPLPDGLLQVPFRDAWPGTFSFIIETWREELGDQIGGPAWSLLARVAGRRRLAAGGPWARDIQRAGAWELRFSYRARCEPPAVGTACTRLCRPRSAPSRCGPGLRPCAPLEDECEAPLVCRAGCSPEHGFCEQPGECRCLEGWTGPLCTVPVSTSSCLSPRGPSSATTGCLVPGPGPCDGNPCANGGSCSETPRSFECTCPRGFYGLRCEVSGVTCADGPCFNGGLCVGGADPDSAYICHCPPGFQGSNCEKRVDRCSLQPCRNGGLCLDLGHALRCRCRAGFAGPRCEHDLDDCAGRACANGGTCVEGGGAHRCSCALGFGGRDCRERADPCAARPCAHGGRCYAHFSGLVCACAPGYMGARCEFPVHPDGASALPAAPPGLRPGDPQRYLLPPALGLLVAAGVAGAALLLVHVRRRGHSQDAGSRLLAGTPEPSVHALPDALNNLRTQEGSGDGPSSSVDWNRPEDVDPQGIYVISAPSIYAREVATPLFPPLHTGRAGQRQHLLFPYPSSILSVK

[3] = molecular target: DLL3 endogenously expressed on NCI-H82 cells (UniProt Q9NYJ7); assay: FACS on NCI-H82 cells; antibody 0.8 nM
[4] = molecular target: DLL3 endogenously expressed on NCI-H82 cells (UniProt Q9NYJ7); assay: FACS on NCI-H82 cells; antibody 0.0064 nM
[5] = molecular target: DLL3 endogenously expressed on NCI-H82 cells (UniProt Q9NYJ7); assay: FACS on NCI-H82 cells; antibody 0.00128 nM
[6] = molecular target: human DLL3 protein expressed on CHO-K1 recombinant cells (human DLL3 extracellular segment fused to EpCAM transmembrane and intracellular regions) (human) (UniProt Q9NYJ7); assay: FACS, CHO-K1 hDLL3 cells, 0.8 nM antibody
[7] = molecular target: DLL3 endogenously expressed on NCI-H82 cells (UniProt Q9NYJ7); assay: FACS on NCI-H82 cells; antibody 0.16 nM
[8] = molecular target: DLL3 endogenously expressed on NCI-H82 cells (UniProt Q9NYJ7); assay: FACS on NCI-H82 cells; antibody 100 nM
[9] = molecular target: human DLL3 protein expressed on CHO-K1 recombinant cells (human DLL3 extracellular segment fused to EpCAM transmembrane and intracellular regions) (human) (UniProt Q9NYJ7); assay: FACS, CHO-K1 hDLL3 cells, 0.00128 nM antibody
[10] = molecular target: human DLL3 protein expressed on CHO-K1 recombinant cells (human DLL3 extracellular segment fused to EpCAM transmembrane and intracellular regions) (human) (UniProt Q9NYJ7); assay: FACS, CHO-K1 hDLL3 cells, 4 nM antibody
[11] = molecular target: human DLL3 protein expressed on CHO-K1 recombinant cells (human DLL3 extracellular segment fused to EpCAM transmembrane and intracellular regions) (human) (UniProt Q9NYJ7); assay: FACS, CHO-K1 hDLL3 cells, 0.0064 nM antibody
[12] = molecular target: human delta-like ligand 3 (DLL3) on SHP77 cells (human) (UniProt Q9NYJ7); assay: FACS on SHP77 cells
Chain of human delta-like ligand 3 (DLL3) on SHP77 cells (human) (Q9NYJ7 27-618, stated change not applied): as the sequence (Q9NYJ7 27-618) above

[13] = molecular target: DLL3 endogenously expressed on NCI-H82 cells (UniProt Q9NYJ7); assay: FACS on NCI-H82 cells; antibody 4 nM
[14] = molecular target: human DLL3 protein expressed on CHO-K1 recombinant cells (human DLL3 extracellular segment fused to EpCAM transmembrane and intracellular regions) (human) (UniProt Q9NYJ7); assay: FACS, CHO-K1 hDLL3 cells, 0.032 nM antibody
[15] = molecular target: DLL3 endogenously expressed on NCI-H82 cells (UniProt Q9NYJ7); assay: FACS on NCI-H82 cells; antibody 0.032 nM
[16] = molecular target: human DLL1 protein (Acro, Cat. No. DL1-H52H8) (human) (UniProt O00548); assay: ELISA, coated hDLL1; maximum over 0.1, 1, 10, 100 nM antibody
Chain of human DLL1 protein (Acro, Cat. No. DL1-H52H8) (human) (O00548 18-540 limits assumed): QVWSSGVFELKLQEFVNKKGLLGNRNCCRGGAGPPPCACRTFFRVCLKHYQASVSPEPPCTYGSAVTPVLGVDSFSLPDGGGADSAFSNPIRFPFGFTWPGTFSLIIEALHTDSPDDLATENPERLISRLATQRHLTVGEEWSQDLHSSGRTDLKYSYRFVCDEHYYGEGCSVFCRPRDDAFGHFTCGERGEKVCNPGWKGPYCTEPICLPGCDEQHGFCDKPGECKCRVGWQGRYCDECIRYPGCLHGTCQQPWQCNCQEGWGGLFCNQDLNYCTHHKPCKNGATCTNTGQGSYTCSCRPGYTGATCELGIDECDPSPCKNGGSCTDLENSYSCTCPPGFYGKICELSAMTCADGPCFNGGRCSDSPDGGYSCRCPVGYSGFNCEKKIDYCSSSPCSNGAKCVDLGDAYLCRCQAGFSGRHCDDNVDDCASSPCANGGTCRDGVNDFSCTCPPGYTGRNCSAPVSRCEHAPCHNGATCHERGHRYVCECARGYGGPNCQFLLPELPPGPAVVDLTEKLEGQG

[17] = molecular target: human DLL3 protein expressed on CHO-K1 recombinant cells (human DLL3 extracellular segment fused to EpCAM transmembrane and intracellular regions) (human) (UniProt Q9NYJ7); assay: FACS, CHO-K1 hDLL3 cells, 0.16 nM antibody
[18] = molecular target: human DLL4 protein (Acro, Cat. No. DL4-H5227) (human) (UniProt Q9NR61); assay: ELISA, coated hDLL4; maximum over 0.1, 1, 10, 100 nM antibody
Chain of human DLL4 protein (Acro, Cat. No. DL4-H5227) (human) (Q9NR61 27-524 limits assumed): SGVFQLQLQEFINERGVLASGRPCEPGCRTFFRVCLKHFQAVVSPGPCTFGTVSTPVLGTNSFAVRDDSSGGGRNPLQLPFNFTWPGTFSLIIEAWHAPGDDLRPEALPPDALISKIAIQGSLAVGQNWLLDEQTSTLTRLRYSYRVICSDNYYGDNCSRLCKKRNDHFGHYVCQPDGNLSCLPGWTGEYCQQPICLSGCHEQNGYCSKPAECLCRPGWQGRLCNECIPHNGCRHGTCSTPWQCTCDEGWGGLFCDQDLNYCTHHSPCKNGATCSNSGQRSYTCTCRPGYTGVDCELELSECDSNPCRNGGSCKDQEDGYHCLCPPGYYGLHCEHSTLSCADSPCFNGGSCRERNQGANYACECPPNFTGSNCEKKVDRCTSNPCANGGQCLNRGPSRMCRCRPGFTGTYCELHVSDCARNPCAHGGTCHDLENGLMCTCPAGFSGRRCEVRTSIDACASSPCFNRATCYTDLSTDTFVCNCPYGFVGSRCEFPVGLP

[19] = molecular target: human DLL3 protein expressed on CHO-K1 recombinant cells (human DLL3 extracellular segment fused to EpCAM transmembrane and intracellular regions) (human) (UniProt Q9NYJ7); assay: FACS, CHO-K1 hDLL3 cells, 100 nM antibody
[20] = molecular target: human DLL1 protein (human) (UniProt O00548); assay: ELISA, maximum over 0.1-100 nM
Chain of human DLL1 protein (human) (O00548 18-540 limits assumed): as the sequence (O00548 18-540 limits assumed) above

[21] = molecular target: human DLL4 protein (human) (UniProt Q9NR61); assay: ELISA, maximum over 0.1-100 nM
Chain of human DLL4 protein (human) (Q9NR61 27-524 limits assumed): as the sequence (Q9NR61 27-524 limits assumed) above

[22] = molecular target: human DLL3 endogenously expressed on SHP77 and NCI-H82 cells (human) (UniProt Q9NYJ7); assay: FACS SHP77 cells, 0.00128 nM
Chain of human DLL3 endogenously expressed on SHP77 and NCI-H82 cells (human) (Q9NYJ7 27-618): as the sequence (Q9NYJ7 27-618) above

[23] = molecular target: monkey DLL3 on CHO K1-cyno DLL3 cells (cynomolgus monkey DLL3 extracellular segment joined to EpCAM transmembrane and intracellular regions) (cynomolgus monkey); assay: FACS, CHO K1-cyno DLL3 cells, 0.0064 nM antibody
Chain of monkey DLL3 on CHO K1-cyno DLL3 cells (cynomolgus monkey DLL3 extracellular segment joined to EpCAM transmembrane and intracellular regions) (cynomolgus monkey) (chain, as listed by the source limits assumed): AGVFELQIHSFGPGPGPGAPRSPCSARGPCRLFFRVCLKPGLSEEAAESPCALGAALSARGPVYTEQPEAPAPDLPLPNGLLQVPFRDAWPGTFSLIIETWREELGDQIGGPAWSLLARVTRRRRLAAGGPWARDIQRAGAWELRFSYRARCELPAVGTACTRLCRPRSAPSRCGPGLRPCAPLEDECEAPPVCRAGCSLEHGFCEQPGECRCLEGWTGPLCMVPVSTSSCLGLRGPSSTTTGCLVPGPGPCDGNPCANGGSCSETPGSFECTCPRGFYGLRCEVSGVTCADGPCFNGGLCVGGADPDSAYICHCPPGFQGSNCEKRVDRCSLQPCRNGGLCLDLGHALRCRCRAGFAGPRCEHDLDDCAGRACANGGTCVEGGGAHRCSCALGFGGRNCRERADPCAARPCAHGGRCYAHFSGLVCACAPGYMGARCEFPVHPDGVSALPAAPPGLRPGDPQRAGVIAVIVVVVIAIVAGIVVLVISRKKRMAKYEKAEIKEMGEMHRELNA

[24] = molecular target: human DLL3 endogenously expressed on SHP77 and NCI-H82 cells (human) (UniProt Q9NYJ7); assay: FACS SHP77 cells, 20 nM
[25] = molecular target: human DLL3 endogenously expressed on SHP77 and NCI-H82 cells (human) (UniProt Q9NYJ7); assay: FACS SHP77 cells, 4 nM
[26] = molecular target: monkey DLL3 on CHO K1-cyno DLL3 cells (cynomolgus monkey DLL3 extracellular segment joined to EpCAM transmembrane and intracellular regions) (cynomolgus monkey); assay: FACS, CHO K1-cyno DLL3 cells, 0.00128 nM antibody
[27] = molecular target: monkey DLL3 on CHO K1-cyno DLL3 cells (cynomolgus monkey DLL3 extracellular segment joined to EpCAM transmembrane and intracellular regions) (cynomolgus monkey); assay: FACS, CHO K1-cyno DLL3 cells, 20 nM antibody
[28] = molecular target: human DLL3 endogenously expressed on SHP77 and NCI-H82 cells (human) (UniProt Q9NYJ7); assay: FACS SHP77 cells, 0.032 nM
[29] = molecular target: human DLL3 endogenously expressed on SHP77 and NCI-H82 cells (human) (UniProt Q9NYJ7); assay: FACS SHP77 cells, 0.16 nM
[30] = molecular target: human DLL3 endogenously expressed on SHP77 and NCI-H82 cells (human) (UniProt Q9NYJ7); assay: FACS SHP77 cells, 0.0064 nM
[31] = molecular target: human DLL3 endogenously expressed on SHP77 and NCI-H82 cells (human) (UniProt Q9NYJ7); assay: FACS SHP77 cells, 0.8 nM
[32] = molecular target: monkey DLL3 on CHO K1-cyno DLL3 cells (cynomolgus monkey DLL3 extracellular segment joined to EpCAM transmembrane and intracellular regions) (cynomolgus monkey); assay: FACS, CHO K1-cyno DLL3 cells, 0.032 nM antibody
[33] = molecular target: monkey DLL3 on CHO K1-cyno DLL3 cells (cynomolgus monkey DLL3 extracellular segment joined to EpCAM transmembrane and intracellular regions) (cynomolgus monkey); assay: FACS, CHO K1-cyno DLL3 cells, 100 nM antibody
[34] = molecular target: monkey DLL3 on CHO K1-cyno DLL3 cells (cynomolgus monkey DLL3 extracellular segment joined to EpCAM transmembrane and intracellular regions) (cynomolgus monkey); assay: FACS, CHO K1-cyno DLL3 cells, 0.16 nM antibody
[35] = molecular target: monkey DLL3 on CHO K1-cyno DLL3 cells (cynomolgus monkey DLL3 extracellular segment joined to EpCAM transmembrane and intracellular regions) (cynomolgus monkey); assay: FACS, CHO K1-cyno DLL3 cells, 4 nM antibody
[36] = molecular target: human DLL3 endogenously expressed on SHP77 and NCI-H82 cells (human) (UniProt Q9NYJ7); assay: FACS SHP77 cells, 100 nM
[37] = molecular target: monkey DLL3 on CHO K1-cyno DLL3 cells (cynomolgus monkey DLL3 extracellular segment joined to EpCAM transmembrane and intracellular regions) (cynomolgus monkey); assay: FACS, CHO K1-cyno DLL3 cells, 0.8 nM antibody

MFI [1]: 13400 MFI
MFI [2]: 882
MFI [3]: 518
MFI [4]: 121
MFI [5]: 112
MFI [6]: 7770 MFI
MFI [7]: 256
MFI [8]: 1010
MFI [9]: 310 MFI
MFI [10]: 12600 MFI
MFI [11]: 452 MFI
MFI at 0.00128 nM [12]: 101 MFI
MFI at 0.0064 nM [12]: 105 MFI
MFI at 0.032 nM [12]: 110 MFI
MFI at 0.16 nM [12]: 148 MFI
MFI at 0.8 nM [12]: 252 MFI
MFI at 4 nM [12]: 498 MFI
MFI at 20 nM [12]: 807 MFI
MFI at 100 nM [12]: 967 MFI
MFI [13]: 795
MFI [14]: 924 MFI
MFI [15]: 155
Emax of OD450 nm binding value [16]: 0.14 OD450 nm
MFI [17]: 2660 MFI
Emax of OD450 nm binding value [18]: 0.06 OD450 nm
MFI [19]: 13200 MFI
Emax of OD450 nm binding value [20]: 0.05 OD450 and 0.07 OD450
Emax of OD450 nm binding value [21]: 0.05 OD450 and 0.04 OD450
B1: BI3 (antibody, human IgG1, kappa, V domains shown)
VH: QVQLVQSGAEVKKPGASVKVSCKASGYTFTSYYVHWVRQAPGQGLEWMVIINPGGGTTSYAQKFLGRVTMTRDTSTNTVYMELKSLRSEDTAVYYCARGEAVTGNYFYYGMDVWGQGTTVTVSS
VL: DIQMTQSPSAMSASVGDRVTITCRASQGISNYLVWFQQKPGKAPKRLIYAVSSLYSGVPSRFSGSGSGTEFTLTISSLQPEDFATYYCLQHDSYPYTFGQGTKLEIKR

MFI [22]: 182 MFI
MFI [23]: 243 MFI
MFI [24]: 1280 MFI
MFI [25]: 789 MFI
MFI [26]: 163 MFI
MFI [27]: 8420 MFI
MFI [28]: 351 MFI
MFI [29]: 566 MFI
MFI [30]: 197 MFI
MFI [31]: 732 MFI
MFI [32]: 566 MFI
MFI [33]: 10600 MFI
MFI [34]: 1820 MFI
MFI [35]: 7470 MFI
MFI [36]: 976 MFI
MFI [37]: 5570 MFI
B2: mab003 scFv-hFc (Fc fusion, part only; not given: VL-VH linker and human IgG1 Fc, not shown: another chain or arm of the molecule; a dimerising Fc or GST; small tags and cut ends)
scFv (part 1 of 2): DVQITQSPSYLAASPGETITINCRASKSISKYLAWYQEKPGKTNKLLIYSGSTLHSGIPSRFSGSGSGTDFTLTISSLEPEDFAIYYCQQHNEYPLTFGGGTKLELK
scFv (part 2 of 2): QVQLQQSGTELMKPGASVKLSCKATGYTFTGNWIEWVKQRPGHGLEWIGEILPGTGSTQYNEKFKGKATFTADPSSNTAYMQLSSLTTEDSAIYYCARWGSTVVAYDYWGQGTTLTVSS

MFI [22]: 113 MFI
MFI [24]: 855 MFI
MFI [25]: 707 MFI
MFI [28]: 278 MFI
MFI [29]: 523 MFI
MFI [30]: 161 MFI
MFI [31]: 619 MFI
MFI [36]: 1140 MFI
Emax of OD450 nm binding value [20]: 1.16 OD450
Emax of OD450 nm binding value [21]: 0.06 OD450
B3: mab010 scFv-hFc (Fc fusion, not shown: small tags and cut ends; a dimerising Fc or GST)
scFv (part 1 of 2): DIQMTQSPASLSVSVGETVTITCRASENINSNLAWYQQKQGKSPQLLVYAATNLADGVPSRFSGSGSGTQFSLKISGLQSEDFGSYYCQHFWGLPWTFGGGTKLEIR
scFv (part 2 of 2): QVQLQQSGAELARPGASMKLSCKASGYTFTSYGISWVKQITGQGLEWIGEIFPRSGNTYDNENFRGKATLTADKSSSTAYLEVRSLTSEDSAVYFCARTTVFAPYYFDYWGQGTTLTVSS
